From article PMC3902949

Target: Saccharomyces cerevisiae Rad51 protein (S. cerevisiae) (UniProt P25454)
Test: SEC; 10 µM Rad51 and 20 µM Rad52 fragment incubated at room temperature for 1 h, or each protein alone; Superdex 200 10/300 GL in 20 mM Hepes-KOH pH 7.5, 0.1 M KCl, 0.5 mM EDTA, 10% glycerol, 2 mM 2-mercaptoethanol; peak fractions analysed by SDS-PAGE

UniProt P25454, sequence (P25454 whole entry, the tested form may be a part): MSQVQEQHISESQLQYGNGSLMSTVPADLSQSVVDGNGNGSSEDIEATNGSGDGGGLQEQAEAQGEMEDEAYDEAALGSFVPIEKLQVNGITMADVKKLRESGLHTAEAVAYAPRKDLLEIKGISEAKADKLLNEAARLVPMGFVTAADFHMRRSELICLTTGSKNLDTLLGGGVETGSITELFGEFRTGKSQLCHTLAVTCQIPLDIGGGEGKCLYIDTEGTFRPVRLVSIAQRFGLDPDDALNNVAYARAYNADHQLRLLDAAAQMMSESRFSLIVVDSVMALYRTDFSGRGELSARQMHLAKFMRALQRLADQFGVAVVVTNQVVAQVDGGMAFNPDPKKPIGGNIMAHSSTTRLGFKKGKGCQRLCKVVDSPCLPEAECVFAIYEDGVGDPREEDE

stoichiometry N: 1
Substance: Rad52^233–504 (C-terminal half of the Saccharomyces cerevisiae Rad52 protein) (domain or fragment)
